Source: patent US20220389097A1 (Genentech, published 2022)
Numbering of substitutions follows the chain as printed. Names and notes keep the numbering of the source. Where no end group is shown, it is not given here.

T1: soluble monomeric human TREM2 (human, UniProt Q9NZC2 19-174, limits assumed)
T1 construct: Not the same as shed sTREM2; also called soluble monomeric TREM2
T1 sequence: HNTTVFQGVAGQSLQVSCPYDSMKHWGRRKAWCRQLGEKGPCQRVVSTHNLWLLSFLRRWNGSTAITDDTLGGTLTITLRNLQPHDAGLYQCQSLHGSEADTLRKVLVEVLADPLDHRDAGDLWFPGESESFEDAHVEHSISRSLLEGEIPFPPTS

T2: human TREM2 on cells (human, UniProt Q9NZC2 19-230)
T2 sequence: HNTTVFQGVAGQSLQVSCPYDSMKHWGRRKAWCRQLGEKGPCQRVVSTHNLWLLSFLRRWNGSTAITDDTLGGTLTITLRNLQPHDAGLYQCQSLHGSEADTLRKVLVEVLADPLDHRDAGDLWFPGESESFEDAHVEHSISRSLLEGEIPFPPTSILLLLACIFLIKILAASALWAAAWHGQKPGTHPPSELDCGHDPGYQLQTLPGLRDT

T3: TREM2 peptide residues 148 to 165 (human)
T3 construct: Peptide of the crystal structures
T3 peptide: ESFEDAHVEHSISRSLLE

T4: hTREM2 stalk peptide 149-168 (human, biotinylated)
T4 peptide: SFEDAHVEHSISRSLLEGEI

T5: 154-164 (also: biotinylated (site not given here))
T5 construct: member of the group m13; also called hTREM2 stalk 154-164
T5 peptide: HVEHSISRSLL

T6: 129-148 (biotinylated (site not given))
T6 construct: member of the group m13
T6 peptide: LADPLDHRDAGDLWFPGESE

T7: 155-169 (also: biotinylated (site not given here))
T7 construct: member of the group m13
T7 peptide: VEHSISRSLLEGEIP

T8: hTREM2 stalk peptide 146-169 (human, biotinylated)
T8 peptide: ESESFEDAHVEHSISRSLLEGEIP

T9: 139-158 (biotinylated (site not given))
T9 construct: member of the group m13
T9 peptide: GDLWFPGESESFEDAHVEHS

T10: hTREM2 stalk peptide 151-165 (human, also: biotinylated (position not given here))
T10 peptide: EDAHVEHSISRSLLE

T11: 159-175 (also: biotinylated (site not given here))
T11 construct: member of the group m13
T11 peptide: ISRSLLEGEIPFPPTSI

T12: hTREM2 stalk peptide 146-161 (human, also: biotinylated (site not given here))
T12 peptide: ESESFEDAHVEHSISR

T13: 152-161 (also: biotinylated (site not given here))
T13 construct: member of the group m13
T13 peptide: DAHVEHSISR

T14: hTREM2 stalk peptide residues 129-175 (human, biotinylated)
T14 construct: also called human TREM2 stalk peptide
T14 peptide: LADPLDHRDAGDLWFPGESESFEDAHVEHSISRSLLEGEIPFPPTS

T15: hTREM2 stalk antigen (human, UniProt Q9NZC2 129-174)
T15 construct: also called human TREM2 stalk
T15 chain: T14 peptide

T16: cynomolgus TREM2 stalk antigen (cynomolgus monkey, UniProt A0A2K5UY34 159-204, not fully specified)
T16 construct: domain: stalk
T16 chain: T14 peptide with F15V

T17: soluble human TREM2 (sTREM2) (human, UniProt Q9NZC2 19-157)
T17 construct: also called soluble TREM2; TREM2 ectodomain
T17 sequence: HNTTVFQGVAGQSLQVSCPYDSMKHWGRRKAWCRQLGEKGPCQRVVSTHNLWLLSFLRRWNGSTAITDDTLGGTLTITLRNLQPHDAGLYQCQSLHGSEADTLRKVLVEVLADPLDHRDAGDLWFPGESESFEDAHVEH

B1: T93H (antibody, V domains shown)
VH: EVQLVETGGSLVQPGKSLKLTCATSGFPFSNVWMHWVRQSPEKQLEWIAHIKAKSDNYATYYAESVKGRFTISRDDSKTSIYLQMNSLKEDDTAIYYCHGLDYWGQGVMVTVSS
VL: DTVLTQAPLSLSVTPGESASISCRSSKSLLGVRDITSLYWYLQKPGKSPQLLIYRMSNLASGVPDRFSGSGSETDFTLKISEVETEDVGVYYCAQFLRYPYTFGPGTKLELK
B2: T93E (antibody, V domains shown)
VH: B1 VH with H99E
VL: B1 VL
B3: hPara.09.v2 Q100P (antibody, V domains shown)
VH: EVQLVESGGGLVQPGGSLKLSCATSGFPFSNVWLHWVRQASGKGPEWVAHIKAKSDNYATYYAESVKGRFTISRDDSKNTVYLQMNSLKTEDTAVYYCTDILEYWGQGTLVTVSS
VL: DVVMTQSPLSLPVTPGEPASISCRSSRSLLTSKGITSLYWYLQKPGQSPQLLIYRMSNLASGIPDRFSGSGSGTDFTLKISRVEAEDVGVYYCAQFLVYPYTFGPGTKVEIK
notes: Human IgG1 N297G in the cell assays; also called huPara.09.v2 Q100P; hPara.09 Q100P
B4: 3.18E5 (rat anti-human TREM2 antibody) (antibody, IgG2a, V domains shown)
VH: B1 VH with S80T, D91A, H99T
VL: B1 VL with L11V, S26N, V32I
notes: Whole IgG
B5: 3.10C2 (rat anti-human TREM2 antibody) (antibody, V domains shown)
VH: B1 VH with H99T
VL: B1 VL
notes: Whole IgG with rat variable regions; also called clone 3.10C2
B6: 3.50G1 (rat anti-human TREM2 antibody) (antibody, IgG2a, V domains shown)
VH: B1 VH with E90D, H99T
VL: B1 VL with L11V, S26N, V32I, Y41F, K112Q
notes: Whole IgG
B7: 3.10C2 D101E mutant IgG (antibody, name in Kabat numbering, V domains shown)
VH: B1 VH with H99T, D102E
VL: B1 VL
notes: IgG captured on anti-human Fab chip
B8: control antibody 1.16B8 (antibody, mouse IgG2a, kappa, V domains shown)
VH: EVQLVESGGGLVQPGRSLKLSCAASGFTFSDSAMAWVRQAPKKGLEWVATIIYDTSSTYYRDSVKGRFTISRDNAKSTLYLQMDSLRSEDTATYYCALFGVDVMDAWGQGASVTVSS
VL: DIQMTQTPSSMPASLGERVTISCRASQGISNYLNWYQQKPDGTIKPLIYYTSNLQSGVPSRFSGSGSGTDYSLTISSLEPEDFAMYYCQQYDSSPWTFGGGTKLEIKR
notes: also called CTL; 1.116B8
B9: h3.10C2.v1 Q100P (antibody, V domains shown)
VH: EVQLVESGGGLVQPGGSLKLSCATSGFPFSNVWMHWVRQASGKGLEWIAHIKAKSDNYATYYAESVKGRFTISRDDSKTTIYLQMNSLKTEDTAVYYCTGLDYWGQGTTVTVSS
VL: B3 VL
notes: also called hu3.10C2.v1 Q100P

Assays:
[1] = target: T1, soluble monomeric human TREM2; assay: SPR (Biacore 8K) at 37 C, mutant IgG captured on anti-human Fab chip, soluble monomeric TREM2 as analyte, off-rate screen
human TREM2 on cells [2] = target: T2, human TREM2 on cells; assay: cell-based or functional assay
[3] = target: T3, TREM2 peptide residues 148 to 165; assay: crystal structure of the complex
human TREM2 on cells [4] = target: T2, human TREM2 on cells; assay: cell-based or functional assay; remark: listed apart in the source
[5] = target: T4, hTREM2 stalk peptide 149-168; assay: ELISA: biotinylated peptide captured on streptavidin plate, antibody detected with anti-mouse IgG-HRP
Excerpt: (§1) The antibody epitopes were mapped to the stalk region of human TREM2 using enzyme-linked immunosorbent assay (ELISA). Overlapping biotinylated peptides were captured in ELISA plates coated with streptavidin. The binding of antibodies to peptides was detected with an anti-mouse IgG conjugated to horseradish peroxidase.

154-164 = target: T5, 154-164; assay: as above
Excerpt: as §1

129-148 = target: T6, 129-148; assay: as above
Excerpt: as §1

155-169 = target: T7, 155-169; assay: as above
Excerpt: as §1

[6] = target: T8, hTREM2 stalk peptide 146-169; assay: as above
Excerpt: as §1

139-158 = target: T9, 139-158; assay: as above
Excerpt: as §1

[7] = target: T10, hTREM2 stalk peptide 151-165; assay: as above
Excerpt: as §1

159-175 = target: T11, 159-175; assay: as above
Excerpt: as §1

[8] = target: T12, hTREM2 stalk peptide 146-161; assay: as above
Excerpt: as §1

152-161 = target: T13, 152-161; assay: as above
Excerpt: as §1

[9] = target: T14, hTREM2 stalk peptide residues 129-175; assay: as above
Excerpt: as §1

hTREM2 stalk antigen = target: T15, hTREM2 stalk antigen; assay: SPR (Biacore T200), 37 C; TREM2 stalk antigen on anti-human IgG1 Fc chip, antibody in solution
Experimental: (§2) Forty-six rat anti-human antibodies were tested for binding affinity to the hTREM2 and cynomolgus TREM2 stalk. Antibody binding affinities for hTREM2 stalk and cynomolgus TREM2 stalk were measured by surface plasmon resonance (SPR) using a Biacore™ T200 apparatus. TREM2 stalk antigens (human or cynomolgus) were immobilized on anti-human IgG1 Fc Biacore™ chips and anti-TREM2 antibody clones were bound to immobilized TREM2 at 37° C. Binding affinities, KD (nM) were measured and recorded.
(§3) Several antibodies were selected for binding measurements against cynomolgus TREM2 stalk. […] These four antibodies are referred to collectively below as the “3.10C2 group” of antibodies.

[10] = target: T16, cynomolgus TREM2 stalk antigen; assay: as above
Experimental: as §2, §3

[11] = target: T1, soluble monomeric human TREM2; assay: SPR (Biacore 8K); mutant IgG on anti-human Fab chip, soluble monomeric TREM2
Excerpt: The resulting library consists of individual IgG clones, each with one mutation per molecule in the heavy chain variable regions. Clones were screened for off-rate (dissociation rate) by SPR in a Biacore™ 8K instrument using anti-human Fab chips to capture mutant IgGs and soluble monomeric TREM2 as ligand.

[12] = target: T17, soluble human TREM2 (sTREM2); assay: sandwich ELISA: antibody coated as capture, sTREM2 from BMDM supernatant, biotinylated 3.17A9 detection
Experimental: A human TREM2 ELISA assay was used to measure binding of more than forty antibodies to soluble TREM2 (sTREM2) as follows: test anti-hTREM2 antibodies were coated onto plate wells as capture reagents and a biotinylated IgV-reactive monoclonal antibody, 3.17A9, was used as the detection reagent. Antibody 1.16B8 was used as a control antibody to establish the standard for sTREM2 binding. Plates coated with test or control antibody were incubated with diluted culture supernatant from bone marrow-derived macrophage (BMDM) cultures from transgenic mice expressing hTREM2. sTREM2 is constitutively produced by the BMDM cultures expressing hTREM2 and shed into the culture supernatant. Measurements were recorded at 450 nm for detection and 570 nm for background. The 3.17A9/1.16B8 antibody pair was selected over reagents provided in the R&D Systems kit as the commercial reagents were not compatible with sTREM2 detection of some of the antibodies tested. Control antibody 1.16B8 light chain sequence is shown in SEQ ID NO: 170, and its heavy chain sequence is shown in SEQ ID NO: 171.

Binder | A620 absorbance (ELISA) [5] [A620] | A620 absorbance (ELISA) (154-164) [A620] | A620 absorbance (ELISA) (129-148) [A620] | A620 absorbance (ELISA) (155-169) [A620] | A620 absorbance (ELISA) [6] [A620] | A620 absorbance (ELISA) (139-158) [A620] | A620 absorbance (ELISA) [7] [A620] | A620 absorbance (ELISA) (159-175) [A620] | A620 absorbance (ELISA) [8] [A620] | A620 absorbance (ELISA) (152-161) [A620] | A620 absorbance (ELISA) [9] [A620] | Kd (hTREM2 stalk antigen) [nM] | Kd [10] [nM] | further results
B1 |  |  |  |  |  |  |  |  |  |  |  |  |  | fold improvement (lower dissociation rate kd) relative to wild-type 3.10C2 [1]: 1.4 fold
B2 |  |  |  |  |  |  |  |  |  |  |  |  |  | fold improvement (lower dissociation rate kd) relative to wild-type 3.10C2 [1]: 2 fold
B3 |  |  |  |  |  |  |  |  |  |  |  |  |  | EC50, Jurkat NFAT luciferase reporter cells (human TREM2 on cells [2]): 0.0178 µg/mL; IC50, TREM2 shedding inhibition in Jurkat-NFAT reporter cells (sTREM2 ELISA) (human TREM2 on cells [2]): 0.123 µg/mL; binding result [3]: binds; EC50, average X04 plaque intensity, human iPSC-derived microglia plaque assay (FIG. 24C) (human TREM2 on cells [4]): 500 nM; EC50, survival of iPSC-derived microglia (FIG. 23E) (human TREM2 on cells [4]): 0.61 nM; EC50, total Abeta plaque intensity, human iPSC-derived microglia plaque assay (FIG. 24B) (human TREM2 on cells [4]): 120 nM
B4 | 1.46 | 0.4 | 0.28 | 0.14 | 1.48 | 0.51 | 2.42 | 0.07 | 2.89 | 0.15 | 1.65 | 0.26 | 0.3 | 
B5 | 2.16 | 0.39 | 0.19 | 0.13 | 1.65 | 0.37 | 2.52 | 0.07 | 2.95 | 0.12 | 1.91 | 0.24 | 0.25 | 
B6 | 1.28 | 0.26 | 0.19 | 0.13 | 1.88 | 0.43 | 2.32 | 0.08 | 2.52 | 0.14 | 2.13 | 0.61 | 0.57 | 
B7 |  |  |  |  |  |  |  |  |  |  |  |  |  | binding result [11]: no binding
B8 |  |  |  |  |  |  |  |  |  |  |  |  |  | binding result [12]: binds
B9 |  |  |  |  |  |  |  |  |  |  |  |  |  | binding result [3]: binds
